Test [1] addresses T1, recombinant human OX40-his (Sino Biological, Cat#:10481-H03H) (human, UniProt P43489 29-214).
T1 construct: bought protein; also called hOX40-his; not shown: His tag
T1 sequence: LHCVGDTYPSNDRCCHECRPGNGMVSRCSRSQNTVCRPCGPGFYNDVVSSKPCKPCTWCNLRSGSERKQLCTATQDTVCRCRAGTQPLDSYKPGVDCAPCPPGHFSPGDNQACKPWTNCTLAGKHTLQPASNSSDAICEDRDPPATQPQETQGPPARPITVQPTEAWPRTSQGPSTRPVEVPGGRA
Briefly: ELISA on coated human OX40-His, OD450.

For test [2], the target named is T2, rhesus OX40 expressed on HEK293A cells (rhesus, UniProt P43489 29-277 (human entry)).
T2 construct: also called HEK293A/rhOX40; HEK293A/rhesusOX40 cells
T2 chain: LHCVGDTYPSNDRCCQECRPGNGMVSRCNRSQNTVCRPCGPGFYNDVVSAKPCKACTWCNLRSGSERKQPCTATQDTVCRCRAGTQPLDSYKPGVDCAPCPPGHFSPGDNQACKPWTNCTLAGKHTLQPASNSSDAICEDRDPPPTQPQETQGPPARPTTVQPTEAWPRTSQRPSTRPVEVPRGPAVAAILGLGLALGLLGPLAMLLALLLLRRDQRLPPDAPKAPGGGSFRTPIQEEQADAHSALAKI
Put plainly: FACS on HEK293A/rhesus OX40 cells, MFI (panel without title; monkey OX40 by the legend). The protocol: Briefly, 10^5 HEK293A cells were seeded into each well of the 96-well plates and serially diluted anti-OX40 antibodies were added to the plates. After incubated at 4° C. for 1 hour, plates were washed 3 times with PBST. Then, an APC coupled Goat Anti-Mouse IgG (BioLegen, US, Cat#: 405308) diluted 500× was added to the plates. After incubation at 4° C. for 1 hour, the plates were washed with PBS for 3 times and then cell fluorescence was monitored using a FACS machine (BD).
Example 15 Humanized Anti-OX40 Antibodies Bound to Human or Rhesus OX40 Expressed on HEK293A Cells The humanized anti-OX40 antibodies were also tested for their ability of binding to HEK293A/huOX40 cells or HEK293A/rhOX40 cells, following the FACS analysis protocol as described in Example 5.

The target of test [3] is T3, recombinant rhesus OX40-his (Sino Biological, Cat#:90846-C08H) (rhesus monkey, UniProt P43489 29-214 (human entry)).
T3 construct: bought protein; also called monkey OX40-his; rhOX40-his; not shown: His tag
T3 chain: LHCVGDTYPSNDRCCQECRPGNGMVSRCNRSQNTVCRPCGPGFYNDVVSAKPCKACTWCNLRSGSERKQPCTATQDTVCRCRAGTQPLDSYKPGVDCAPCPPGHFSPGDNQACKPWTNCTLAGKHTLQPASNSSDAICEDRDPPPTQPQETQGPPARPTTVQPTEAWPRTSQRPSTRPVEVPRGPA
Put plainly: ELISA on coated rhesus OX40-His, OD450. Background: An ELISA detects its analyte on a solid surface through an enzyme-linked reagent.

In test [4] the target is T4, murine OX40-His (Crown, Cat#: E3350-B1707) (mouse, UniProt P47741 20-211).
T4 construct: bought protein; also called mouse OX40-his; muOX40-his; not shown: His tag
T4 sequence: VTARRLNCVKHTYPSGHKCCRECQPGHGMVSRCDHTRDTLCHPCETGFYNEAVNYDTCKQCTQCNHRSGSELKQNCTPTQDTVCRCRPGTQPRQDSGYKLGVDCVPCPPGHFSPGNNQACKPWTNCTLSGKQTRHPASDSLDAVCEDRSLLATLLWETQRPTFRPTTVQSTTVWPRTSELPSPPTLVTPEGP
Put plainly: ELISA.

In test [5] the target is T1, recombinant human OX40-his (Sino …). Briefly: SPR Biacore 8K, OX40-His on chip, antibody injected. The procedure:
SPR assays were used to determine the binding affinity of the chimetic or humanized anti-OX40 antibodies to human OX40 with the BIAcore™ 8K instrument (GE Life Sciences). Briefly, 100-200 response units (RU) of human OX40-His protein (Sino Biological, CN, Cat#:10481-H03H, Lot no.: MA08MA3003) were coupled to CM5 biosensor chips (Cat#: BR-1005-30, GE Life Sciences), followed by blocking of un-reacted groups with 1M ethanolamine. Serially diluted antibodies at concentrations ranging from 0.3 µM to 10 µM were injected into the SPR running buffer (HBS-EP buffer, pH7.4, GE Life Sciences; US; Cat#:BR-1006-69) at 30 µL/minute. The binding capacitity was calculated with the RUs of blank controls subtracted. The association rate (k_a) and dissociation rate (k_d) were calculated using the one-to-one Langmuir binding model (BIA Evaluation Software, GE Life Sciences). The equilibrium dissociation constant K_D was calculated as the k_d/k_a ratio.

B1: 71H8-VH3VL2 (antibody, human IgG1, kappa, V domains shown)
VH: QVQLVQSGAEVKKPGASVKVSCKVSGYTFTSYWITWVRQRPGQGLEWIGDIYPGSGSTNQNEKFKSRVTLTVDTSTDTAYMELSSLRSEDTAVYYCATLRPYYFVYWGQGTLVTVSS
VL: DIQMTQSPSSLSASVGDRVTITCRASQDISNYLNWYQQKPGKTPKLLIYYTSRLLSGVPSRFSGSGSGTDYTLTISSLQPEDFATYYCQQGNTLPLTFGQGTRLEIKR
notes: humanized; also called 71H8-H3L2
As a reminder, the EC50 (read off the curve) is the concentration that produces a half-maximal response. The term Kd denotes a measure of binding affinity in units of concentration. For orientation: koff means the first-order rate constant of dissociation. The kon is the second-order rate constant of association. Consider B1, for which the “EC50 (read off the curve)” value in test [1] and in test [3] was approximately 3 ng/mL each time. The binding result in test [2] was “binds”; in test [4], “no binding”. Further, the Kd in test [5] is 37.2 nM. Further, the koff in test [5] came out at 0.00871 s⁻¹. In addition, in test [5], the on-rate constant (kon) was found to be 234000 M⁻¹ s⁻¹.

The record behind these values is patent publication US10442866 (BEIJING MABWORKS BIOTECH, dated 2019).
